pIC50: −log10 of the molar value.
Assays:
Assay type in all cases: binding
Conditions in all cases: Table IV cross-reactivity; phage clones
[1] = target: T1, Hu DR5 IgG (SEQ ID NO: 109) (Homo sapiens, UniProt O14763); experiment: Ic50 cross-reactivity ELISA, Hu DR5 IgG
T1 construct: Human DR5 IgG fusion polypeptide
Experimental: (§1) 1. Coat microtiter plate wells with 80 ul of 1 ug/ml Apo-2L receptor DR5 ECD (SEQ ID NO: 105) (in 50 mM sodium carbonate pH 9.6) at 4° C. overnight.
(§2) 3. Prepare competing receptor solutions (100 ul/sample).
(§3) 6. Transfer 80 ul the mixture of competing receptor and phage from the non-sticky plate to DR5 ECD coated plate and incubate 20 minutes at room temperature.
(§4) In the Tables provided herein, “Ic 50” refers to the measure of the concentration of peptide needed to inhibit 50% of Apo-2L (e.g. amino acids 114 to 281 of SEQ ID NO: 1) binding to an Apo-2L receptor molecule (e.g. DR4-IgG (SEQ ID NO: 108) or DR5 ECD (SEQ ID NO: 105) etc.). The peptides are classified such that class 1-class 4 represent a, b, c, and d respectively.
(§5) Table VIII identifies the sequence identification numbers (SEQ ID NOs.) for the various peptides disclosed herein.

[2] = target: T2, Hu DR4 IgG (SEQ ID NO: 108) (Homo sapiens, UniProt O00220, H141R/R209T); experiment: Ic50 cross-reactivity ELISA, Hu DR4 IgG
T2 construct: Human DR4 IgG fusion polypeptide
Experimental: as §1, §2, §3, §4, §5

[3] = tested on: Cyno DR5 IgG (SEQ ID NO: 112); experiment: Ic50 cross-reactivity ELISA, Cyno DR5 IgG
Experimental: as §1, §2, §3
Peptides of the invention and their Ic 50 values (e.g. determinations of Ic 50 in ELISA based assays using a DR5 ECD (SEQ ID NO: 105) competitor) are identified in Table III below. In the Tables provided herein, “Ic 50” refers to the measure of the concentration of peptide needed to inhibit 50% of Apo-2L (e.g. amino acids 114 to 281 of SEQ ID NO: 1) binding to an Apo-2L receptor molecule (e.g. DR4-IgG (SEQ ID NO: 108) or DR5 ECD (SEQ ID NO: 105) etc.). The peptides are classified such that class 1-class 4 represent a, b, c, and d respectively.
Table IV below provides certain properties of selected peptides, for example Ic50 cross-reactivity data with DR4 and DR5 polypeptides. Table VIII identifies the sequence identification numbers (SEQ ID NOs.) for the various peptides disclosed herein.
Using these methods, the Ic 50 values for various phage clones expressing peptide sequences of interest were generated and are provided in the Tables below. […]

[4] = tested on: Cyno DR4 IgG (SEQ ID NO: 111); experiment: Ic50 cross-reactivity ELISA, Cyno DR4 IgG
Experimental: as §1, §2, §3, §4, §5

[5] = target: T3, Hu TNFR IgG (SEQ ID NO: 110) (Homo sapiens, UniProt P19438); experiment: Ic50 cross-reactivity ELISA, Hu TNFR IgG
T3 construct: Human TNFR1 IgG fusion polypeptide
Experimental: as §1, §2, §3, §4, §5

T2 sequence (O00220 with tags, fused parts or gaps H141R/R209T): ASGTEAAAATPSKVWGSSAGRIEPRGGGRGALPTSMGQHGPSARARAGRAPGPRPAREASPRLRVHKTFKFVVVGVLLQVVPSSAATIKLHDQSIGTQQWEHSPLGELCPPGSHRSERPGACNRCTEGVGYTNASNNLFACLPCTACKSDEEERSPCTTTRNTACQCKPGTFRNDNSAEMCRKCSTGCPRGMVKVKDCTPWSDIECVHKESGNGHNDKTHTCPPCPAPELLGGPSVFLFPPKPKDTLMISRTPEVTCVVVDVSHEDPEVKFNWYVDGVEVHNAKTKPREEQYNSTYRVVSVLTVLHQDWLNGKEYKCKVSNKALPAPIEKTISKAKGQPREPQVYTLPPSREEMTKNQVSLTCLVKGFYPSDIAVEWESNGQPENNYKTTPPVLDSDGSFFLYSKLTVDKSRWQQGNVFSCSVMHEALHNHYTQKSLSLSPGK
Sequence of Cyno DR4 IgG (SEQ ID NO: 111) (as listed by the source): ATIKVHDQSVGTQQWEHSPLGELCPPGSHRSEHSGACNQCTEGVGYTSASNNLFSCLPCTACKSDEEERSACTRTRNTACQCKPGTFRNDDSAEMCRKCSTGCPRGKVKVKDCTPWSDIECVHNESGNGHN
T3 sequence (P19438 with tags, fused parts or gaps): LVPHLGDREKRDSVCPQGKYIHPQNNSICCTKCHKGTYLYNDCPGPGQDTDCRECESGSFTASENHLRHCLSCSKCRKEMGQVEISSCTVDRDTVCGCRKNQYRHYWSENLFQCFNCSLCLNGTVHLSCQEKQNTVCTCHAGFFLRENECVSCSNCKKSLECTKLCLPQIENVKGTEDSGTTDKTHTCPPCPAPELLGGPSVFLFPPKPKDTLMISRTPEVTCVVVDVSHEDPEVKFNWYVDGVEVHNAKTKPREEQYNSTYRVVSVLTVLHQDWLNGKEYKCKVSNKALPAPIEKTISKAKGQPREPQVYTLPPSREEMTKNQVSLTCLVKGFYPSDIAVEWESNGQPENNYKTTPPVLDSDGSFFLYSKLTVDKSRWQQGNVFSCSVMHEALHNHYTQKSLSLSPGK
T1 sequence (O14763 with tags, fused parts or gaps): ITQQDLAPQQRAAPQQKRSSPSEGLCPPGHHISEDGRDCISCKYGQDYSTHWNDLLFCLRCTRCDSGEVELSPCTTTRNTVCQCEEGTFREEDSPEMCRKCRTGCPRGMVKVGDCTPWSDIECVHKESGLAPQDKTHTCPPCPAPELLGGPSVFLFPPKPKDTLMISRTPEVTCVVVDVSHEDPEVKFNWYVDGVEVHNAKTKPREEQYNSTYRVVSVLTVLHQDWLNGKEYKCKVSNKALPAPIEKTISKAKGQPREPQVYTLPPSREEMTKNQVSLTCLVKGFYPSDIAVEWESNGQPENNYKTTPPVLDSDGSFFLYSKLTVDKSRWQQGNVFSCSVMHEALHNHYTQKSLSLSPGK

Question: How did the pIC50 [1] turn out when “Hd5-11: phage-derived DR5 binding peptide, class C1, SEQ ID NO: 15, first generation (G1) lead (QEVCMTSCDKLMKCNWMAAM)” was run?
Answer: Its pIC50 is 8.10.

Question: And the pIC50 [2]?
Answer: Its pIC50 is 6.00.

Question: What about the pIC50 [3] of the same substance?
Answer: The pIC50 was 5.00.

Question: What about the pIC50 [4] of the same substance?
Answer: Its pIC50 is 6.00.

Question: And the pIC50 [5]?
Answer: The pIC50 was 6.00.

Reference: patent US20070066800A1, “Apo2l(trail) receptor binding peptides and uses thereof” (priority 2003, published 2007)
